# In patent US11007356B2, “Ingestible device for delivery of therapeutic agent to the gastrointestinal tract” (Progenity, Inc., priority 2018, dated 2021):
# Several values for one entry are separate records, joined by “and”; a condition that tells them apart may be missing. Equal entries are not always repeated. Where two headings read alike, the source gives them in different places. Marks after values point to notes of the source that are not given here.
# What was measured:
# [1] = cited from earlier work
# [2] = Dosing regimen model: required bioavailability for ingestible device (Tables 16, 17); settings: for Eff Dose: approved dose x bioavailability of the approved route (Table 16); for Eff. Dose: baseline dose x bioavailability, SC (Table 17), assumed weight 70 kg
# blood glucose = experiment: Euglycemic clamp procedure (PD) in swine (Example 3); assay type: in vivo, Yorkshire female swine
# Protocol: (§1) Blood samples were kept on wet ice until centrifugation and separation of plasma. […] Glucose was monitored every five (5) minutes during the study by portable glucose analyzer (StatStrip (SS) hospital glucose monitoring system (Nova Biomedical, Waltham, Mass.)). At each time point, approximate 0.1 mL of blood was drawn and immediately placed on a glucose monitoring test strip, and the whole blood glucose concentration was measured by the SS in triplicate.
# A euglycemic clamp procedure (ECP) was employed to compare pharmacokinetics and pharmacodynamics of regular human Insulin (NOVOLIN® R) delivered subcutaneously (SC) in the neck versus intra-jejunally (IJ) by the jet delivery device in the small intestine. ECP was used to quantify the amount of glucose required to maintain normoglycemia after exogenous bolus of insulin. […] The animals were anesthetized for the entire ECP.
# [3] = Insulin PK after SC or intra-jejunal (IJ) jet delivery in swine (Example 3); assay type: in vivo, Yorkshire female swine; settings: for Cmax of blood insulin, Average / Tmax of blood insulin, Average: average of animals; for Cmax of blood insulin / Tmax of blood insulin: individual animals
# Protocol: A total of 18 Yorkshire female swine in good health and weighing 60-70 kg each were included in this study. Swine were divided into two groups with 9 animals per group. […] A sham surgical laparotomy was performed. […] The jet delivery device was configured with the single nozzle in an axial orientation.
# Swine were divided into two groups with 9 animals per group. […] In all 18 animals, a laparotomy procedure was performed to expose the abdominal cavity. Animals remained under anesthesia during the entire procedure for the PK/PD study.
# For the laparotomy in group 02, a small segment of the jejunal mucosa and serosa was exposed by midline laparotomy and the jet delivery device was inserted through antimesenteric incision.
# as §1
# The animals were anesthetized for the entire ECP.
# [4] = pig, in vivo
# [5] = IJ administration via jet delivery device, ~40 U
# [6] = SC administration group compared with IJ administration group
compound,measurement,setting,value
"CC[C@H](C)[C@H](NC(=O)[C@H](Cc1ccccc1)NC(=O)[C@H](CCC(=O)O)NC(=O)[C@H](CCCCNC(=O)COCCOCCNC(=O)COCCOCCNC(=O)CC[C@H](NC(=O)CCCCCCCCCCCCCCCCC(=O)O)C(=O)O)NC(=O)[C@H](C)NC(=O)[C@H](C)NC(=O)[C@H](CCC(N)=O)NC(=O)CNC(=O)[C@H](CCC(=O)O)NC(=O)[C@H](CC(C)C)NC(=O)[C@H](Cc1ccc(O)cc1)NC(=O)[C@H](CO)NC(=O)[C@H](CO)NC(=O)[C@@H](NC(=O)[C@H](CC(=O)O)NC(=O)[C@H](CO)NC(=O)[C@@H](NC(=O)[C@H](Cc1ccccc1)NC(=O)[C@@H](NC(=O)CNC(=O)[C@H](CCC(=O)O)NC(=O)C(C)(C)NC(=O)[C@@H](N)Cc1cnc[nH]1)[C@@H](C)O)[C@@H](C)O)C(C)C)C(=O)N[C@@H](C)C(=O)N[C@@H](Cc1c[nH]c2ccccc12)C(=O)N[C@@H](CC(C)C)C(=O)N[C@H](C(=O)N[C@@H](CCCNC(=N)N)C(=O)NCC(=O)N[C@@H](CCCNC(=N)N)C(=O)NCC(=O)O)C(C)C [Semaglutide, semaglutide]",Bio Avail (Approved Dosing Info),"[1]; in vivo, sc",89%
CC[C@H](C)[C@H](NC(=O)[C@H](CCC(=O)O)NC(=O)[C@H](CO)NC(=O)[C@@H](NC(=O)[C@@H](N)CO)C(C)C)C(=O)N[C@@H](CCC(N)=O)C(=O)N[C@@H](CC(C)C)C(=O)N[C@@H](CCSC)C(=O)N[C@@H](Cc1cnc[nH]1)C(=O)N[C@@H](CC(N)=O)C(=O)N[C@@H](CC(C)C)C(=O)NCC(=O)N[C@@H](CCCCN)C(=O)N[C@@H](Cc1cnc[nH]1)C(=O)N[C@@H](CC(C)C)C(=O)N[C@@H](CC(N)=O)C(=O)N[C@@H](CO)C(=O)N[C@@H](CCSC)C(=O)N[C@@H](CCC(=O)O)C(=O)N[C@@H](CCCN=C(N)N)C(=O)N[C@H](C(=O)N[C@@H](CCC(=O)O)C(=O)N[C@@H](Cc1c[nH]c2ccccc12)C(=O)N[C@@H](CC(C)C)C(=O)N[C@@H](CCCN=C(N)N)C(=O)N[C@@H](CCCCN)C(=O)N[C@@H](CCCCN)C(=O)N[C@@H](CC(C)C)C(=O)N[C@@H](CCC(N)=O)C(=O)N[C@@H](CC(=O)O)C(=O)N[C@H](C(=O)N[C@@H](Cc1cnc[nH]1)C(=O)N[C@@H](CC(N)=O)C(=O)N[C@@H](Cc1ccccc1)C(=O)O)C(C)C)C(C)C [teriparatide],Eff Dose,[2],0.02 mg
same,Bio Avail (Approved Dosing Info),[1]; SC administration,95%
Novolin® R: regular human insulin (NOVOLIN® R),"mean dextrose infusion rate, IJ vs SC",blood glucose; first 70 minutes after administration,higher in the IJ administration group
same,"mean dextrose infusion rate, IJ vs SC",blood glucose; from 75 minutes to 420 minutes post-administration,higher in the SC administration group
same,"Cmax of blood insulin, Average",[3]; [5],77.40 uIU/mL
same,"Tmax of blood insulin, Average",[3]; [5],0.9272 h
same,Cmax of blood insulin,[3]; [5],40.93 uIU/mL and 96.77 uIU/mL and 5.03 uIU/mL and 7.96 uIU/mL and 48.77 uIU/mL and 85.38 uIU/mL and 207.96 uIU/mL and 126.39 uIU/mL
same,Tmax of blood insulin,[3]; [5],20 min and 50 min and 90 min (2×) and 40 min (3×)
same,"AUC of blood insulin, SC vs IJ",[3]; [6],higher than that of the IJ administration group
same,"maximum plasma concentration Cmax, SC vs IJ",[3]; [6],higher than that of the IJ administration group
same,"Cmax of blood insulin, Average",[3]; SC administration,202.94 uIU/mL
same,"Tmax of blood insulin, Average",[3]; SC administration,1.452 h
same,Cmax of blood insulin,[3]; SC administration,451.00 uIU/mL and 60.74 uIU/mL and 354.00 uIU/mL and 356.60 uIU/mL and 65.71 uIU/mL and 59.18 uIU/mL and 73.34 uIU/mL
same,Tmax of blood insulin,[3]; SC administration,50 min (2×) and 180 min and 105 min and 30 min and 120 min
same,time to maximum plasma concentration (Tmax),[3]; jejunum administration group (jet delivery device),0.9272 h
alirocumab,Eff Dose,[2],63.8 mg
same,Bio Avail (Approved Dosing Info),"[1]; in vivo, sc",85%
certolizumab pegol,Eff Dose,[2],160 mg
same,Bio Avail (Approved Dosing Info),"[1]; in vivo, sc",80%
denosumab,Eff Dose,[2],36.6 mg
same,Bio Avail (Approved Dosing Info),"[1]; in vivo, sc",61%
dulaglutide,Bioavailability relative to IV,[4],26.51 ± 6.55% ^a
same,Bioavailability relative to SC,[4],49.11 ± 0.08% ^a
same,(AUC)T0-T240 h ± SEM,[4]; 1.2 mg,4355.86 ± 1094.57^a ng.hr/mL
same,AUCID (± SEM),[4]; 1.2 mg,3890.00 ± 94.73 ng·h/mL
same,Tmax,[4]; 1.2 mg,8 h
same,(AUC)T0-T240 h ± SEM,"[4]; iv, 1.2 mg",16429.33 ± 600.93 ng·h/mL
same,Tmax,"[4]; iv, 1.2 mg",1 h
same,(AUC)T0-T240 h ± SEM,"[4]; sc, 1.2 mg",8869 ± 887.33 ng·h/mL
same,Tmax,"[4]; sc, 1.2 mg",6 h
same,Eff Dose,[2],0.49 mg
same,Bio Avail (Approved Dosing Info),"[1]; in vivo, sc",65%
etanercept,Eff Dose,[2],29.0 mg
same,Bio Avail (Approved Dosing Info),"[1]; in vivo, sc",58%
glucagon,Eff. Dose,[2],2.0 mg
same,Bioavail. (Baseline dose),"[1]; in vivo, sc",100.0%
golimumab,Eff Dose,[2],25.5 mg
same,Bio Avail (Approved Dosing Info),"[1]; in vivo, sc",51%
natalizumab,Eff Dose,[2],300 mg
same,Bio Avail (Approved Dosing Info),"[1]; in vivo, iv",100%
secukinumab,Eff Dose,[2],109.5 mg
same,Bio Avail (Approved Dosing Info),"[1]; in vivo, sc",73%
somatropin,Eff. Dose,[2],0.8 mg
same,Bioavail. (Baseline dose),"[1]; in vivo, sc",80.5%
tocilizumab,Eff Dose,[2],129.6 mg
same,Bio Avail (Approved Dosing Info),"[1]; in vivo, sc",80%
ustekinumab,Eff Dose,[2],35.1 mg
same,Bio Avail (Approved Dosing Info),"[1]; in vivo, sc",78%
vedolizumab,Eff Dose,[2],300 mg
same,Bio Avail (Approved Dosing Info),"[1]; in vivo, iv",100%
